Publication PMC3877065, “Ligand Recognition by the TPR Domain of the Import Factor Toc64 from Arabidopsis thaliana” (PLoS ONE, 2013)

B1: C-terminal octapeptide of Hsp70 (GPTIEEVD) [not stated] / TPR domain of AtToc64 with a C-terminal hexa-histidine tag (AtToc64_TPR-H6) [Arabidopsis thaliana] (parent complex)
chain 1: GPTIEEVD
chain 2: AEIAKEKGNQAFKEKLWQKAIGLYSEAIKLSDNNATYYSNRAAAYLELGGFLQAEEDCTKAITLDKKNVKAYLRRGTAREMLGDCKGAIEDFRYALVLEPNNKRASLSAERLRKFQ
B2: C-terminal octapeptide of Hsp90 (TSRMEEVD) [not stated] / TPR domain of AtToc64 with a C-terminal hexa-histidine tag (AtToc64_TPR-H6) [Arabidopsis thaliana] (parent complex)
chain 1: TSRMEEVD
chain 2: B1 chain 2

Variants of: B1
Test: ITC; parent: 2.3e+05 nM
In the case of chain 1 I4A, the Kd is reported as 4.6 mM.

Variants of: B2
Test: ITC; parent: 2.18e+05 nM
In the case of chain 1 M4A, the Kd is reported as 1.08 mM. chain 1 E6A showed a Kd of 1.9 mM. In the case of chain 1 D8A, the Kd is reported as 1.4 mM.
